According to US20230295310A1 (ABCELLERA BIOLOGICS, published 2023):

Legend:
[1] = target: T1, human CD3e/d (human, UniProt P07766 23-126; P04234 22-105); experiment: SPR (Carterra LSA), mAb on chip
T1 construct: Bought soluble protein; also called hCD3e/d; human CD3/ed (Sino CT038-H2508H)
Procedure, shortened: (§1)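 Purified mAbs amine-coupled (EDC/S-NHS) at 10 μg/mL in 10 mM NaOAc pH 4.25 onto an HC-30M chip, with benchmark and negative-control mAbs; analyte flowed over the array. Double-referenced sensorgrams fitted globally to a 1:1 Langmuir model for ka, kd and KD.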

[2] = target: T2, human CD3e/g (human, UniProt P07766 23-126; P09693 23-116); experiment: SPR (Carterra LSA), mAb on chip
T2 construct: Bought soluble protein; also called hCD3e/g; human CD3e/g (Acro CDD-C52W4)
Procedure, shortened: as §1

T1 sequence (P07766 23-126, chain 1 of 2): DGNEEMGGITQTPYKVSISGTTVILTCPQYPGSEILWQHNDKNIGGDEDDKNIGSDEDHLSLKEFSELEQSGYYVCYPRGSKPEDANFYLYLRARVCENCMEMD
T1 sequence (P04234 22-105, chain 2 of 2): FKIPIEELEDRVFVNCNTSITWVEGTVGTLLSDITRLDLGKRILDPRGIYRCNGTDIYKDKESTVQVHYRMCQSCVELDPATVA
T2 sequence (P07766 23-126, chain 1 of 2): as the sequence (P07766 23-126, chain 1 of 2) above
T2 sequence (P09693 23-116, chain 2 of 2): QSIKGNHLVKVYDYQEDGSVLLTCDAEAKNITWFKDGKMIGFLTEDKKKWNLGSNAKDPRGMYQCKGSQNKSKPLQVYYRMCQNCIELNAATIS

Binder | Kd [1] [nM] | Kd [2] [nM]
mAb 283 (antibody, V domains shown, VH and VL only) VH: QVHLVQSGAEVKKPGASVRVSCKASGYTFTGYYIHWLRQAPGQGLEWLGWINPNSGGTNYSQKFRGRVTMTRDTSISTAYMELSRLRSDDTAVYYCARDKVWEQQLVGGFDYWGQGTLVTVSS VL: not shown | 160 | 20
mAb 237 (antibody, V domains shown, VH and VL only) VH: EVQLLESGGDLVQPGGSLRLTCAASGFTFRSYAMNWVRQAPGKGLEWVSTISSRGDTTNYADSVKGRFTISRDTSKNTLYLQMDNLRADDTAVYYCSKMFSYYYYYMDVWGKGTTVTVSS VL: SYELTQPLSVSVALGQTARITCGGNNIGSKDVHWYQQKPGQAPVLVIYRDSNRPSGIPERFSGSNSGNTATLTISRAQAGDEADYYCQVWDSRTAVFGGGTQLTAL | 25 | 5.6
mAb 251 (antibody, V domains shown, VH and VL only) VH: EVQILESGGGLVQPGGSLRLSCVASGFTFRSYVMSWVRRAPGRGLEWVSGISASGGNTYYADSVKGRFTISRDNSKNTLFLQMNGLRAEDTAVYYCAKLFSYYYYFMDVWGKGTTVTVSS VL: SYELTQPLSVSVALGQTARITCGGNNIGSKDVHWYQQKPGQAPVLVIYRDSNRPSGIPERFSGSNSGNTATLTISGAQAGDEADYYCQVWDRRTAVFGGGTQLTAL | 24 | 8.1
mAb 264 (antibody, V domains shown, VH and VL only) VH: EVQLLESGGGLVQPGGSLRLSCVASGFTFRSSSMTWVRQAPGKGLEWVSGIRGSGGRTYDAESVKGRFTISRDNSKNTLYLQMNSLRAEDTAEYYCAKLYDYYNDYMDVWGKGTTVTVSS VL: SYELTQPLSVSVALGQTARITCGGNNIGSKNVHWYQQKPGQAPVLVIYRDSNRPSGIPERFSGSNSGNTATLTISRAQAGDEADYYCQVWDSSTAVFGGGTQLTAL | 32 | 7.4
mAb 263 (antibody, V domains shown, VH and VL only) VH: EVQLLESGGGLVQPGGSLRLSCTPSGITFNNYAMTWVRQAPGKGLEWVSGISVSGGSTYYADSVMGRFTISRDSSKTLYLQMNSLRAEDTAVYYCAKFHSHYYYYMDVWGKGTTVTVSS VL: SYELTQPLSVSVALGQTARITCGGNNIGSKDVHWYQQKPGQAPVLVIYRDSNRPSGIPERFSGSNSGNTATLTISRAQAGDEADYYCQVWDRRTAVFGGGTQLTAL | 9 | 4.1
mAb 297 (antibody, V domains shown, VH and VL only) VH: EVQLLESGGGLVQPGGSLRLSCAASGFTFSSYAMNWVRQAPGKGLEWVSIISGGRRDDITYYAASVKGRFTISRDNSKNTLYLQMNSLRAEDTAVYYCAKMYNYYYYYIDVWGKGTTVTVSS VL: SYELTQPLSVSVALGQTAKITCGGNNIGSKDVHWYQQKPGQAPVLVIYRDSNRPSGIPERFSGSNSGNTATLTISRAQAGDEADYYCQVWDSNTAVFGGGTQLTAL | 66 | 18
mAb 260 (antibody, V domains shown, VH and VL only) VH: EVQLLESGGGLVQPGGSLRLSCVASGFTFRSSSMAWVRQAPGKGLEWVSGIRGSGGRTYDAESVKGRFIISRDTSKNTLYLQMNSLRGEDTAEYFCAKLYDYYNDYMDVWGKGTTVTVSS VL: SYELTQPLSVSVALGQTARITCGGNNIGSKNVHWYQQKPGQAPVLVIYRDSNRPSGIPERFSGSNSGNTATLTISRAQAGDEADYYCQVWDSSTAVFGGGTQLTAL | 28 | 4.2
mAb 296 (antibody, V domains shown, VH and VL only) VH: EVQLLESGGGLVQPGGSLRLSCAASGFTFSSYAMSWVRQAPGKGLEWVSAISGSGGTTYYTDSVKGRFTISRDNSKNTLYLQMNSLRAEDTAVYYCAKKYSYYYYYMDVWGKGTTVTVSS VL: SYELTQPLSVSVALGQTARITCGGNNIGSKNVHWYQQKPGQAPVLVIYRDSNRPSGIPERFSGSNSGNTATLTISRAQAGDEADYYCQVWDSSTAVFGGGTQLTAL | 370 | 180
mAb 262 (antibody, V domains shown, VH and VL only) VH: EVRLLESGGGLVQPGGSLRLSCAASGFTFRSSSMAWVRQDPGKGLEWVTGIRGSGGRTYDADSVKGRFTISRDNSKNTLYLQMNSLRAEDTAEYYCAKLYDYYNDYMDVWGKGTTVTVSS VL: SYELTQPLSVSVALGQTARITCGGNNIGSKNVHWYQQKPGQAPVLVIYRDSNRPSGIPERFSGSNSGNTATLTISRAQAGDEADYYCQVWDSSTAVFGGGTQLTAL | 26 | 10
mAb 303 (antibody, V domains shown, VH and VL only) VH: EVHLLESGGGLVQPGGSLRLSCAASGFTFSSYAMNWVRQAPGKGLEWISIISGGRRSGITYYAASVKGRFTISRDNSKNTLDLQMNSLRAEDTAVYYCAKMYNYYYYYIDVWGKGTTVTVSS VL: SYELTQPLSVSVALGQTARITCGGNNIGSKDVHWYQQKPGQAPVLVIYRDSNRPSGIPERFSGSNSGNTATLTISRAQAGDEADYYCQVWDSNTAVFGGGTQLTAL | 47 | 5.5
mAb 261 (antibody, V domains shown, VH and VL only) VH: EVQLLESGGGFMQPGGSLRLSCAVSGFTFRTSSMAWVRQAPGKGLEWVSGIRGSGGRTYDAESVKGRFTISRDISKNTLYLQMNNLRAEDTAEYYCAKLYDYYNDFMDVWGKGTTVIVSA VL: SYELTQPLSVSVALGQTARITCGGNNIGSKNVHWYQQKPGQAPVLVIYRDSNRPSGIPERFSGSNSGNTATLTISRAQAGDEADYYCQVWDSSTAVFGGGTQLTAL | 16 | 3
mAb 259 (antibody, V domains shown, VH and VL only) VH: EVLLLESGGGLVQPGGSLRLSCAASGFTFRSSSMTWVRQAPGKGLEWVSGIRGSGGRTYDAESVKGRFTISRDISKNTLYLQMNSVRAEDTAEYYCAKLYDYYNDYMDVWGKGTTVTVSS VL: SYELTQPLSVSVALGQTARITCGGNNIGSKNVHWYQQKPGQAPVLVIYRDSNRPSGIPERFSGSNSGNTATLTISRAQAGDEADYYCQVWDSSTAVFGGGTQLTAL | 63 | 13
mAb 292 (antibody, V domains shown, VH and VL only) VH: EVQLLESGGGLVQPGGSRRLSCAASGFTFSTYAMSWVRQAPGKGLEWVSVINGRGDDTNYADSVKGRFTISRDNSKNILFLQMNSLRAEDTAVYYCAKKYSYYYYYMDVWGKGTTVTVSS VL: SYELTQPLSVSVALGQTARITCGGNNIGSKDVHWYQQKPGQAPVLVIYRDSNRPSGIPERFSGSNSGNTATLTISRAQAGDEADYYCQVWDSRTAVFGGGTQLTAL | 91 | 47
mAb 252 (antibody, V domains shown, VH and VL only) VH: EVQILESGGGLVQPGGSLRLSCVASGFTFRSYVMSWVRRAPGRGLEWVSGISTSGGNTYYADSVKGRFTISRDNSKNTLFLQMNGLRAEDTAVYYCAKLFSYYYYFMDVWGKGTTVTVSS VL: SYELTQPLSVSVALGQTARITCGGNNIGSKDVHWYQQKPGQAPVLVIYRDSNRPSGIPERFSGSNSGNTATLTISGAQAGDEADYYCQVWDRRTAVFGGGTQLTAL | 30 | 13
mAb 238 (antibody, V domains shown, VH and VL only) VH: EVQLLESGGDLVQPGGSLRLTCAASGFTFRSYAMNWVRQAPGKGLEWVSTISSRGDTTNYADSVKGRFTISRDTSKNTLYLQMDNLRADDTAVYYCSKMFSYYYYYMDVWGKGTTVTVSS VL: SYELTQPLSVSVALGQTARITCGGNNIGSKDVHWYQQKPGQAPVLVIYRDSNRPSGIPERFSGSNSGNTATLTISRAQAGDEADYYCQVWDSSTAVFGGGTQLTAL | 59 | 17
mAb 229 (antibody, V domains shown, VH and VL only) VH: QEQLVESGGGVVQPGRSLRLSCAASGFTFSSYGMHWVRQAPGKGLEWVAIIYYNGKKKDYADSVKGRFTISRDNSKNTLYLQMNSLRAEDTAVYYCARGLGYNWFDPWGQGTLVTVSS VL: EIVLTQSPDFQSVTPKEKVTITCRASQSIGSSLHWYQQKPDQSPKLLIKYASQSFSGVPSRFSGSGSGTDFTLTINSLEAEDAATYYCHQSSSLPYTFGQGTKLEIK | 22 | 47
mAb 68 (antibody, V domains shown, VH and VL only) VH: EVQLVDSGGGLVQPGGSLRLSCSGSGFTFSSYWMSWVRQAPGKGLEWVANIKQDGSQKYYVDSVKGRFTISRDNVKNSLYLQMNSLRVEDTAVYYCARDESSSWYWYFDLWGRGTLVTVSS VL: DIQMTQSPSTLSASVGDRVTLTCRASQNIVKWLAWYQQKPGKAPKLLIYKASSLESGVPSWFSGSGSGTEFTLTINSLQPDDFATYYCQQYYTYSRTFGQGTKVEIK | 46.7 | 99.9
mAb 72 (antibody, V domains shown, VH and VL only) VH: EVQLVDSGGGLVQPGGSLRLSCAASGFTFSSYWMSWVRQAPGKGLEWVANIKQDGSEKYYVDSVKGRFTISRDNVKNSLSLEMNSLRAEDTALYYCARDESSSWYWYFDLWGRGTLVTVSS VL: DIQMTQSPSTLSASVGDRVTITCRASQSISKWLAWYQQKPGKAPKLLIYKASSLENGVPSRFSGSGSGTEFTLTISSLQPDDFATYYCQQYSSYSRTFGQGTKVEIK | 606 | 394
mAb 273 (antibody, V domains shown, VH and VL only) VH: EVQLVESGGGLVQPGESLKLSCTASGFTFSVSAIHWVRQASGKGLEWVGRIRSKANSYATAYVASVKGRFTLSRDDSKNTAYLQMNSLKTEDTAVYYCSSYYFVSGTYYNHWGQGTLVTVSS VL: DIQMTQSPSSLSASVGDRVTITCRASQGIRYDLGWYQQKPGRAPKRLIHSVSSLQSGVPSRFSGSGSGTEFTLTISSLQPEDFATYYCLQHNVNPCTFGQGTKLEIK | 75 | 46
mAb 276 (antibody, V domains shown, VH and VL only) VH: EVQLVESGGGLVQPGGSLRLSCAASGIPFSTYSMNWVRQAPGKGLEWVSYISGSSRTIYYADSVKGRFTISRDNAKKLLFLQMNSLRDEDTAVYYCAREGDYYDSSGWAYWGQGTLVTVSS VL: DIQMTQSPSSLSASVGDRVTITCRASQNIYKYLNWYEQKPGRAPKLLIYTTSNLQSGVPSRFSGSGSGTAFTLIISSLQPEDFATYYCQQSYGSPYTFGQGTKLEIK | 15 | 9.6
